Measurements taken from patent US20260242478A1 (published 2026).
Where no end group is shown, it is not given here.

Key:
[1] = target: Anti-CD28 Fab (SEQ ID NOs: 696, 697); assay: phage binding ELISA; Fab-coated wells pre-incubated with CD28 antigen as competitor, anti-M13 HRP detection;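 also: crude clonal phage supernatants added without washing after the CD28 pre-incubation, with wells given blocking buffer only (no CD28) as the reference, bound phage read after washing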
Target sequence in this assay (VH, as listed by the source, chain 1 of 2): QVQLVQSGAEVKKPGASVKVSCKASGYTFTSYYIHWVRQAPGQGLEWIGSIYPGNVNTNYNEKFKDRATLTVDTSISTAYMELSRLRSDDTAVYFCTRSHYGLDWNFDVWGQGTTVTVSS
Target sequence in this assay (VL, as listed by the source, chain 2 of 2): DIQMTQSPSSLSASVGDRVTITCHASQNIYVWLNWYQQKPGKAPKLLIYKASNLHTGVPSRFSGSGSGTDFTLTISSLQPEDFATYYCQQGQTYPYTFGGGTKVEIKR

[2] = target: Anti-CD28 Fab (SEQ ID NOs: 696, 697); assay: phage binding ELISA; biotinylated anti-CD28 Fab on neutravidin plate, clonal phage supernatant, anti-M13 HRP detection;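 also: wells pretreated with blocking buffer, either plus or minus CD28 antigen, then given crude phage supernatant briefly without washing in between, then washed before anti-M13 HRP readout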
Target sequence in this assay (VH, as listed by the source, chain 1 of 2): as the sequence (VH, as listed by the source, chain 1 of 2) above
Target sequence in this assay (VL, as listed by the source, chain 2 of 2): as the sequence (VL, as listed by the source, chain 2 of 2) above
Method: (§1) Clonal phage were harvested as crude supematants and screened via standard ELISAs. […] Prior to the addition of clonal phage, wells were incubated with blocking buffer and CD28 antigen or blocking buffer alone. Without washing or aspirating, clonal phage supematants were then added to the wells and incubated for a short time. Wells were then washed followed by detection of bound phage using a horse radish conjugated anti-M13 antibody.

[3] = target: Anti-CD28 Fab (SEQ ID NOs: 696, 697); assay: phage binding ELISA; Fab-coated wells pre-incubated with CD28 antigen as competitor, anti-M13 HRP detection; remark: listed apart in the source;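 also: crude clonal phage supernatants added without washing after the CD28 pre-incubation, with wells given blocking buffer only (no CD28) as the reference, bound phage read after washing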
Target sequence in this assay (VH, as listed by the source, chain 1 of 2): as the sequence (VH, as listed by the source, chain 1 of 2) above
Target sequence in this assay (VL, as listed by the source, chain 2 of 2): as the sequence (VL, as listed by the source, chain 2 of 2) above

[4] = target: Anti-CD28 Fab (SEQ ID NOs: 696, 697); assay: phage binding ELISA; biotinylated anti-CD28 Fab on neutravidin plate, clonal phage supernatant, anti-M13 HRP detection; remark: listed apart in the source;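 also: wells pretreated with blocking buffer, either plus or minus CD28 antigen, then given crude phage supernatant briefly without washing in between, then washed before anti-M13 HRP readout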
Target sequence in this assay (VH, as listed by the source, chain 1 of 2): as the sequence (VH, as listed by the source, chain 1 of 2) above
Target sequence in this assay (VL, as listed by the source, chain 2 of 2): as the sequence (VL, as listed by the source, chain 2 of 2) above
Method: as §1

[5] = target: T1, Anti-CD28 Fab (SEQ ID NOs: 696, 697) (biotinylated (site not given)); assay: phage binding ELISA on captured anti-CD28 Fab; competitor: CD28 antigen added to the wells before the phage
[6] = target: T1, Anti-CD28 Fab (SEQ ID NOs: 696, 697); assay: phage binding ELISA; biotinylated anti-CD28 Fab on neutravidin plate, clonal phage detected with anti-M13-HRP;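 also: crude clonal phage supernatants added briefly to wells preincubated in blocking buffer with or without CD28 antigen, then washed before detection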
Method: (§2) Clonal phage were harvested as crude supematants and screened via standard ELISAs. […] Prior to the addition of clonal phage, wells were incubated with blocking buffer and CD28 antigen or blocking buffer alone. Without washing or aspirating, clonal phage supematants were then added to the wells and incubated for a short time. Wells were then washed followed by detection of bound phage using a horse radish conjugated anti-M13 antibody. Clonal phage of interest were then sent for sequence analysis.

[7] = target: T2, Anti-CD28 Fab (SEQ ID NOs: 696, 697); assay: phage binding ELISA; clonal phage on plate-captured anti-CD28 Fab pre-incubated with CD28 antigen (competitor)
T2 construct: In the phage ELISA the Fab was biotinylated and captured on neutravidin coated plates
T2 sequence (VH, as listed by the source, chain 1 of 2): as the sequence (VH, as listed by the source, chain 1 of 2) above
T2 sequence (VL, as listed by the source, chain 2 of 2): as the sequence (VL, as listed by the source, chain 2 of 2) above
Method: as §2

[8] = target: T2, Anti-CD28 Fab (SEQ ID NOs: 696, 697); assay: phage binding ELISA; clonal phage on plate-captured biotinylated anti-CD28 Fab
Method: as §1

T1 sequence (VH, as listed by the source, chain 1 of 2): as the sequence (VH, as listed by the source, chain 1 of 2) above
T1 sequence (VL, as listed by the source, chain 2 of 2): as the sequence (VL, as listed by the source, chain 2 of 2) above

Binder	Anti-CD28 Fab signal in the presence of CD28 [5]	Anti-CD28 Fab (SEQ ID NOs: 696, 697) signal [6]	Anti-CD28 Fab signal in the presence of CD28 [7]	Anti-CD28 Fab (SEQ ID NOs: 696, 697) signal [8]	also measured
LCAAGATYPWPFCL [Phage-1366 peptide (Peptide-92 library sequence, SEQ ID NO: 1662)]	–	–	–	–	Anti-CD28 Fab signal in the presence of CD28 [1]: 0.07; Anti-CD28 Fab (SEQ ID NOs: 696, 697) signal [2]: 2.28
MCAAGATYPWPLCL (cysteine pairing not given here; also: fused to phage pIII protein) [Phage-1417]	–	–	–	–	Anti-CD28 Fab signal in the presence of CD28 [3]: 0.07; Anti-CD28 Fab (SEQ ID NOs: 696, 697) signal [4]: 1.99
TCAAGATYAWPECL [Phage-1400]	0.11	2.08	–	–	–
TCAAGATYKWPACL [Phage-1405 (Peptide-92 library clone)]	–	–	0.09	2.05	–
HCAAGAHYPWPACL [Phage-1415 (Peptide-92 library clone)]	–	–	0.12	2	–
LCAAGASYPWPTCL [Phage-1414 (Peptide-92 library clone)]	–	–	0.1	2	–
TCSAGASYPWPLCL [Phage-1363 peptide (Peptide-92 library sequence, SEQ ID NO: 1659)]	–	–	–	–	Anti-CD28 Fab signal in the presence of CD28 [1]: 0.08; Anti-CD28 Fab (SEQ ID NOs: 696, 697) signal [2]: 2.29
TCSAGAYYTWPYCF [Phage-1395]	0.08	2.09	–	–	–
MCAEFFNYPWPLCL (cysteine pairing not given here; also: fused to phage pIII protein) [Phage-1393]	0.07	2.11	–	–	–
MCSAGAMYPWPTCL [Phage-1406 (Peptide-92 library clone)]	–	–	0.08	2.04	–
LCAAGATYAWPLCL [Phage-1392]	0.07	2.13	–	–	–
YCAAGATYPWPLCL [Phage-1399]	0.08	2.08	–	–	–
SCSAGAMYTWPTCL [Phage-1397]	0.06	2.09	–	–	–
TCAAVFSYGWPECF [Phage-1396]	0.07	2.09	–	–	–
RCAAGASYPWPPCL [Phage-1372 peptide (Peptide-92 library sequence, SEQ ID NO: 1668)]	–	–	–	–	Anti-CD28 Fab signal in the presence of CD28 [1]: 0.05; Anti-CD28 Fab (SEQ ID NOs: 696, 697) signal [2]: 2.25
SCKPGVANYWPWCL [Phage-1364 peptide (Peptide-92 library sequence, SEQ ID NO: 1660)]	–	–	–	–	Anti-CD28 Fab signal in the presence of CD28 [1]: 0.1; Anti-CD28 Fab (SEQ ID NOs: 696, 697) signal [2]: 2.29
TCAAGATYEWPACL [Phage-1394]	0.07	2.09	–	–	–
LCAAGFKYPWPLCL [Phage-1411 (Peptide-92 library clone)]	–	–	0.07	2.02	–
TCAAGAHYLWPWCM [Phage-1402]	0.08	2.05	–	–	–
GCAAGATYPWPSCL [Phage-1404 (Peptide-92 library clone)]	–	–	0.06	2.05	–
